Patent US20120213794A1 (published 2012)
Numbering of substitutions follows the chain as printed.

B1: AX212 IgG2 (antibody, V domains shown)
VH: QVQLLESGGGLVQPGGSLRLSCKASGYTFSSYSFSWVRQAPGKGLEWIGYIDPGSGGTKYNQKFQGKATISRDNSKNTLYLQMNSLRAEDTAVYYCARQRVGYSLDYWGQGTLVTVSS
VL: EIVLTQSPATLSLSPGERATITCRASQYVGSYLNWYQQKPGQAPRLLIYDASNRATGIPARFSGSGSGTDFTLTISSLEPEDFAVYYCQVWDSSPPVVFGGGTKVEIK
B2: AX213 IgG2 (antibody, V domains shown)
VH: EVQLLESGGGLVQPGGSLRLSCKASGYTFSRYGINWVRQAPGKGLEWIGRIDPGNGGTRYNEKFKGKATISRDNSKNTLYLQMNSLRAEDTAVYYCARANDGYSFDYWGQGTLVTVSS
VL: EIVLTQSPATLSLSPGERATITCRASQYVGSYLNWYQQKPGQAPRLLIYDASNRATGIPARFSGSGSGTDFTLTISSLEPEDFAVYYCQVWDSSPPVVFGGGTKVEIKR
B3: AX114 IgG2 (antibody, V domains shown)
VH: B2 VH with R31S, I34M, N35Y, R50W, N55S, R59K, A99E, N100R, D101Y, S104Y
VL: B1 VL with S31T, V98A
B4: AX132 IgG2 (antibody)
heavy: EVQLLESGGGLVQPGGSLRLSCKASGYTFSSYGMYWVRQAPGKGLEWIGWIDPGSGGTKYNEKFKGKATISRDNSKNTLYLQMNSLRAEDTAVYYCARERYGYYFDYWGQGTLVTVSSASTKGPSVFPLAPCSRSTSESTAALGCLVKDYFPEPVTVSWNSGALTSGVHTFPAVLQSSGLYSLSSVVTVPSSNFGTQTYTCNVDHKPSNTKVDKTVERKCCVECPPCPAPPVAGPSVFLFPPKPKDTLMISRTPEVTCVVVDVSHEDPEVQFNWYVDGVEVHNAKTKPREEQFNSTFRVVSVLTVVHQDWLNGKEYKCKVSNKGLPAPIEKTISKTKGQPREPQVYTLPPSREEMTKNQVSLTCLVKGFYPSDIAVEWESNGQPENNYKTTPPMLDSDGSFFLYSKLTVDKSRWQQGNVFSCSVMHEALHNHYTQKSLSLSPGK
VL: B1 VL
B5: AX210 Fab (Fab, V domains shown)
VH: B1 VH with F34I, S35Y, Y50W, S55N, K59R, G66S, Q99A
VL: B1 VL
B6: AX211 Fab (Fab, V domains shown)
VH: B2 VH with E1Q, Y32Q, I34F, N35T, R50W, A99Y, N100R, D101V, F105L
VL: B1 VL
B7: AX212 Fab (Fab, V domains shown)
VH: B1 VH
VL: B1 VL
B8: AX213 Fab (Fab, V domains shown)
VH: B2 VH with E1Q
VL: B2 VL
B9: AX114 IgG (antibody, V domains shown)
VH: B2 VH with R31S, I34M, N35Y, R50W, N55S, R59K, A99E, N100R, D101Y, S104Y
VL: B1 VL with S31T, V98A
notes: Purified IgG; also called AX114-IgG2
B10: AX137 IgG (antibody, V domains shown)
VH: B2 VH with R31S, I34M, N35Y, R50W, N55S, R59K, A99E, N100R, D101Y, S104Y
VL: B1 VL with V29I, V90A
notes: Purified IgG
B11: AX210 IgG (antibody, V domains shown)
VH: B1 VH with F34I, S35Y, Y50W, S55N, K59R, G66S, Q99A
VL: B1 VL
notes: Purified IgG
B12: AX211 IgG (antibody, V domains shown)
VH: B2 VH with E1Q, Y32Q, I34F, N35T, R50W, A99Y, N100R, D101V, F105L
VL: B1 VL
notes: Purified IgG
B13: AX212 IgG (antibody, V domains shown)
VH: B1 VH
VL: B1 VL
notes: Purified IgG
B14: AX213 IgG (antibody, V domains shown)
VH: B2 VH
VL: B2 VL
B15: AX210 Fab (Fab, V domains shown)
VH: B1 VH with F34I, S35Y, Y50W, S55N, K59R, G66S, Q99A
VL: B1 VL
notes: Tested as purified Fab
B16: AX139 Fab (Fab, V domains shown)
VH: B2 VH with R31S, I34M, N35Y, R50W, N55S, R59K, A99E, N100R, D101Y, S104Y
VL: B1 VL with S52A
notes: Tested as purified Fab
B17: AX114 Fab (Fab, V domains shown)
VH: B2 VH with R31S, I34M, N35Y, R50W, N55S, R59K, A99E, N100R, D101Y, S104Y
VL: B1 VL with S31T, V98A
notes: Tested as purified Fab from E. coli TG1
B18: AX137 Fab (Fab, V domains shown)
VH: B2 VH with R31S, I34M, N35Y, R50W, N55S, R59K, A99E, N100R, D101Y, S104Y
VL: B1 VL with V29I, V90A
notes: Tested as purified Fab
B19: AX211 Fab (Fab, V domains shown)
VH: B2 VH with E1Q, Y32Q, I34F, N35T, R50W, A99Y, N100R, D101V, F105L
VL: B1 VL
notes: Tested as purified Fab
B20: AX212 Fab (Fab, V domains shown)
VH: B1 VH
VL: B1 VL
notes: Tested as purified Fab
B21: AX213 Fab (Fab, V domains shown)
VH: B2 VH with E1Q
VL: B2 VL

The binders below were run against T1, human PCSK9 (human, UniProt Q8NBP7 31-692) (assay: cell-based or functional assay).
T1 sequence (Q8NBP7 31-692 limits assumed): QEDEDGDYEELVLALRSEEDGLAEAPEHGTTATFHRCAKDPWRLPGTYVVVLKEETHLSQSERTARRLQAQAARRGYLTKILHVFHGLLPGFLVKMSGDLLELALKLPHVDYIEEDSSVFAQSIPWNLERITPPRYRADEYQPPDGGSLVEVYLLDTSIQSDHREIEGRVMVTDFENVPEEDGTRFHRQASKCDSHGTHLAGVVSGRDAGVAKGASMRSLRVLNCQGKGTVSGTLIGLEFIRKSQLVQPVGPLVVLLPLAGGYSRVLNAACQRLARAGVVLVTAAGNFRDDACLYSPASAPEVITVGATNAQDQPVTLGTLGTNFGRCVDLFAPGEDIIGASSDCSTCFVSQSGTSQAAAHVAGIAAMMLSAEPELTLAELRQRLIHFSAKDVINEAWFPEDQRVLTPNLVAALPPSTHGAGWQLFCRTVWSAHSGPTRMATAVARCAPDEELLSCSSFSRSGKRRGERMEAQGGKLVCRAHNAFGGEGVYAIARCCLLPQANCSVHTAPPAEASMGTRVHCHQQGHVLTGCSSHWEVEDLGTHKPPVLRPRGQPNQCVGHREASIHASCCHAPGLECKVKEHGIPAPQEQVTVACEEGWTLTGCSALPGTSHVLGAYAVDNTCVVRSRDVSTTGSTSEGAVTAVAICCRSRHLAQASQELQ

Binder | IgG2 IC50 (nM), inhibition of PCSK9 (LDL uptake assay) [nM]
B1 | 9.5
B2 | 11.1
B3 | 36.6
B4 | 8.9

What follows are binders tested against rhesus PCSK9 (rhesus, UniProt A8T666 31-692, limits assumed) (assay: cell-based or functional assay).
Sequence of rhesus PCSK9 (A8T666 31-692 limits assumed): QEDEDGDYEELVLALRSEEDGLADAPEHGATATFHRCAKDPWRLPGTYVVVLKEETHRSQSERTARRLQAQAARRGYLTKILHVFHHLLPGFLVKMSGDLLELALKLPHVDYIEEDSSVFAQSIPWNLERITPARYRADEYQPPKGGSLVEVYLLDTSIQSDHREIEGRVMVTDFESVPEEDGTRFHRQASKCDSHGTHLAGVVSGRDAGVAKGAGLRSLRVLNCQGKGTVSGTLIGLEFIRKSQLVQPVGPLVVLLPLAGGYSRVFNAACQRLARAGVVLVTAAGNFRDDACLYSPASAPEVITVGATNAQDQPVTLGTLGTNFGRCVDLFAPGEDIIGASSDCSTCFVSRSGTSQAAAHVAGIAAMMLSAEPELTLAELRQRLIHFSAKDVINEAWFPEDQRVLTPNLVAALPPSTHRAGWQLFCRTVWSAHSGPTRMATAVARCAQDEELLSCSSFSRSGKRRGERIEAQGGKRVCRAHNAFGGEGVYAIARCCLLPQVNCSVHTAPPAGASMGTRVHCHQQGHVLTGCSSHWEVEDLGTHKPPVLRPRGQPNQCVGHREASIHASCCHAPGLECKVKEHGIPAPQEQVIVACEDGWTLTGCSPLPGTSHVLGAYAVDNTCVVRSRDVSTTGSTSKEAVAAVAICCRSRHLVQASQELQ

Binder | IgG2 IC50 (nM), inhibition of PCSK9 (LDL uptake assay) [nM]
B1 | 4.7
B2 | 10.2
B3 | 14.4
B4 | 11.5

Each binder was assayed against murine PCSK9 (mouse, UniProt Q80W65 35-694, limits assumed) (assay: cell-based or functional assay).
Sequence of murine PCSK9 (Q80W65 35-694 limits assumed): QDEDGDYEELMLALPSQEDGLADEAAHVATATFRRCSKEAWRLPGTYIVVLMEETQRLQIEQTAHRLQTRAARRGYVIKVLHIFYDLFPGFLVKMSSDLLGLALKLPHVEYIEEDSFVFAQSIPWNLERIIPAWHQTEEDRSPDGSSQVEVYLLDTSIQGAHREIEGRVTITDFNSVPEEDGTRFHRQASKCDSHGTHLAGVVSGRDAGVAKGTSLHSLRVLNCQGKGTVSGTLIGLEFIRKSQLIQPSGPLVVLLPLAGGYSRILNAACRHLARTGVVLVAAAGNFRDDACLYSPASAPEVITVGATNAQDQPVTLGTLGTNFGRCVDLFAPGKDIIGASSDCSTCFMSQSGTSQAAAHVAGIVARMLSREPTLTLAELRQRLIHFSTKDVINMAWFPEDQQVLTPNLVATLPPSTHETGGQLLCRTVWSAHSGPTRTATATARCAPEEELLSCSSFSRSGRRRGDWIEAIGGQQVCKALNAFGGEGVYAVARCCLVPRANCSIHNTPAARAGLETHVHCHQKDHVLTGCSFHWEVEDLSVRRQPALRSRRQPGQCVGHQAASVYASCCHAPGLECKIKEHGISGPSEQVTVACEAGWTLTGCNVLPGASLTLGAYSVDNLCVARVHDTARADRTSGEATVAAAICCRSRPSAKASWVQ

Binder | IgG2 IC50 (nM), inhibition of PCSK9 (LDL uptake assay) [nM]
B1 | 7.3
B2 | 7
B3 | 27.4
B4 | 9.4

Biological target: T1, human PCSK9
Assay: cell-based or functional assay
Remark: another data set of the same source

Binder | Fab IC50 (nM), inhibition of PCSK9 on LDL uptake [nM]
B5 | 26.8
B6 | 12.6
B7 | 13.8
B8 | 14.7

The binders below were run against T2, human PCSK9 (human, UniProt Q8NBP7 31-692) (assay: SPR (Biacore), IgG captured by anti-human IgG, PCSK9 injected at 3.75-60 nM).
T2 construct: Secreted PCSK9 is autocleaved into prodomain and mature chain, and a His-tag is named for the HEK293 constructs; also called hPCSK9; proprotein convertase subtilisin-kexin type 9
Method: The affinities of those IgG molecules were also measured by Biacore assay. Briefly, anti-human IgG monoclonal antibody form Human Antibody Capture Kit provided by Biacore was immobilized on CM5 chips at level of 8000 to 10000 RU. The IgG samples at concentration of ˜0.4 μg/ml was injected onto a sensor chip for 2 minutes at a flow rate of 20 μl/min, then PCSK9 proteins at 5 concentrations (3.75 to 60 nM) were injected onto an IgG captured flow cell for binding kinetic analysis. After each round injection, the sensor chip surface was regenerated by 30 second injection of 3M Magnesium Chloride.
T2 sequence (Q8NBP7 31-692 limits assumed): as the sequence (Q8NBP7 31-692 limits assumed) above

Binder | Kd [nM] | koff [s⁻¹] | kon [M⁻¹ s⁻¹]
B9 | 24 | 0.00361 | 151000
B10 | 9.98 | 0.00332 | 333000
B11 | 2.64 | 0.000621 | 235000
B12 | 1.63 | 0.000589 | 361000
B13 | 2.12 | 0.000324 | 153000
B14 | 2.07 | 0.00073 | 353000

These binders were tested against T3, human PCSK9 (human, UniProt Q8NBP7 31-692) (assay: SPR (Biacore), Fab captured by anti-Fab IgG, 1:1 fit).
T3 construct: also called hPCSK9; proprotein convertase subtilisin-kexin type 9
Method: Biacore assay was developed. First, goat anti-Fab IgGs were immobilized onto CM5 chip by amine coupling as described above. The anti-Fab IgGs were diluted to 200 μg/ml in pH 5/10 mM Acetate solution, and injected onto the NHS/EDC activated surface to achieve an immobilization level of ˜10,000 RU, followed with surface inactivation by injection of Ethanolamine. Then Fab samples at concentration of 2 μg/ml in HBS-P running buffer were injected for 3 minutes at flow speed of 20 ul/min, followed with K-injection (3 minutes injection for association and 6 minutes for dissociation) of PCSK9 at concentration of 10 to 100 nM. The sensor chip surface was regenerated by 30 second injection of 100 mM phosphoric acid. The binding sensorgrams were fitted with 1:1 Langmuir binding model to determine the binding affinity.
T3 sequence (Q8NBP7 31-692 limits assumed): as above

Binder | Kd [nM] | koff [s⁻¹] | kon [M⁻¹ s⁻¹]
B15 | 1.67 | 0.000287 | 172000
B16 | 13.2 | 0.00118 | 89700
B17 | 48.5 | 0.00348 | 71700
B18 | 19.5 | 0.00208 | 107000
B19 | 1.67 | 0.000329 | 197000
B20 | 1.47 | 0.000233 | 159000
B21 | 1.37 | 0.000329 | 243000
